Measured values taken from publication PMC4352707.

Target: Cry1 (UniProt P97784)
Experiment: co-IP, immunoblot
Conditions: reference: wild-type Hausp; sites S18

binding against the reference: stronger
Substance: Hausp (Usp7), Hausp-V5 (from UniProt Q93009) Hausp S18A
